Test results as given in US20120094909A1 (Bristol-Myers Squibb, published 2012).

Assays:
[1] = target: T1, human PCSK9 (proprotein convertase subtilisin kexin type 9) (human, UniProt Q8NBP7 31-692); assay: BLI, biotinylated hPCSK9 on sensor tips
T1 construct: Directly immobilized (SPR ProteOn), biotinylated (BLI), or in solution, depending on the assay; also called hPCSK9
Description: Tips were then immersed into a buffer-only well for observation of Adnectin dissociation. Experiments were performed in a temperature controlled environment at either 25 or 37° C., and the oscillation speed was set at 1500 rpm.
Binding interaction analysis was performed using proprietary software from Fortebio (Fortebio Data Analysis Software version 6.3.0.36). Global fits were performed for all samples, using a 1:1 binding model. The nature of these global fits constrained all values of concentration to a single pair of association and dissociation rates that were themselves constrained to each other. Affinities (KD), association and dissociation rates were averaged over the various loading levels used in the analysis.

[2] = target: T2, human PCSK9 (proprotein convertase subtilisin kexin type 9) (human, UniProt Q8NBP7 31-692); assay: cell-based or functional assay
[3] = target: T2, human PCSK9 (proprotein convertase …); assay: PCSK9:EGFA FRET, competitor EGFA peptide

Kd [1] | koff [1] | kon [1] | LDLR Depletion EC50 [2] | EC50 [3] | Binder | also measured
4.88 nM | 0.000395 s⁻¹ | 80700 M⁻¹ s⁻¹ |  |  | ATI001114 (designed binder, PEGylated on the cysteine of the C-terminal GSGC tail (two-branched 40 kDa PEG), PEGylated version of the 2013E01 Adnectin, His6-tagged; also called ATI1114) MGVSDVPRDLEVVAATPTSLLISWVPPSDDYGYYRITYGETGGNSPVQEFTVPIGKGTATISGLKPGVDYTITVYAVEFPWPHAGYYHRPISINYRTGSGCHHHHHH | 
0.554 nM | 5.07e-05 s⁻¹ | 145000 M⁻¹ s⁻¹ |  |  | ATI001117 (designed binder, PEGylated on the cysteine of the C-terminal tail (marked by asterisk in Table 5 as having been pegylated; PEG not specified), Anti-PCSK9 Adnectin, cysteine mutant of 2011H05, His6-tagged; also called 2011H05 Cys mut) MGVSDVPRDLEVVAATPTSLLISWVPSSHAYGYYRITYGETGGNSPVQEFTVPVGVGTATISGLKPGVDYTITVYAVEYAFEGAGYYHRPISINYRTGSGCHHHHHH | 
 |  |  | 14 nM |  | 1923B02(N82I) (designed binder) MGVSDVPRDLEVVAATPTSLLISWTPPPKGYGYYRITYGETGGNSPVQEFTVPVGEGTATISGLKPGVDYTITVYAVEYTYIGAGYYHRPISINYRTGSGSHHHHHH | 
 |  |  | 42 nM |  | 1923B02(T80A) (designed binder) MGVSDVPRDLEVVAATPTSLLISWTPPPKGYGYYRITYGETGGNSPVQEFTVPVGEGTATISGLKPGVDYTITVYAVEYAYNGAGYYHRPISINYRTGSGSHHHHHH | 
 |  |  | 28 nM |  | 1923B02(N82E) (designed binder) MGVSDVPRDLEVVAATPTSLLISWTPPPKGYGYYRITYGETGGNSPVQEFTVPVGEGTATISGLKPGVDYTITVYAVEYTYEGAGYYHRPISINYRTGSGSHHHHHH | 
 |  |  | 21 nM |  | 1922G04(R25S) (designed binder) MGVSDVPRDLEVVAATPTSLLISWSPPSHAYGYYRITYGETGGNSPVQEFTVPIGKGTATISGLKPGVDYTITVYAVEYPWKGSGYYHRPISINYRTGSGSHHHHHH | 
 |  |  |  | 4.5 nM | 2451B06 (designed binder) MGVSDVPRDLEVVAATPTSLLISWDAPADGGYGYYRITYGETGGNSPVQEFTVPVSKGTATISGLKPGVDYTITVYAVEFDFPGAGYYHRPISINYRTEIDKPSQHHHHHH | 
5.3 nM | 0.000445 s⁻¹ | 81900 M⁻¹ s⁻¹ |  |  | ATI001119 (designed binder, PEGylated on the cysteine of the C-terminal tail (marked by asterisk in Table 5 as having been pegylated; PEG not specified), Anti-PCSK9 Adnectin, cysteine mutant of 2012A04, His6-tagged; also called 2012A04 Cys mut) MGVSDVPRDLEVVAATPTSLLISWRPPSNGHGYYRITYGETGGNSPVQEFTVPVNEGTATISGLKPGVDYTITVYAVEFPFKWSGYYHRPISINYRTGSGCHHHHHH | 
 |  |  |  | 3.1 nM | 2382D08 (designed binder) MGVSDVPRDLEVVAATPTSLLISWDAPADGYGYYRITYGETGGNSPVQEFTVPVSKGTATISGLKPGVDYTITVYAVEFPFPGSGYYHRPISINYRTEIDKPSQHHHHHH | LDLR Depletion (% inhibition at 75 nM) [2]: 107%
0.806 nM | 0.00042 s⁻¹ | 574000 M⁻¹ s⁻¹ |  |  | 2971A03 (designed binder, Anti-PCSK9 Adnectin, His6-tagged) MGVSDVPRDLEVVAATPTSLLISWDPPSDDYGYYRITYGETGGNSPVQEFTVPIGKGTATISGLKPGVDYTITVYAVEFPWPHAGYYHRPISINYRTEIDKPSQHHHHHH | 
 |  |  | > 2000 nM |  | 1784F03-m3 (designed binder) MGVSDVPRDLEVVAATPTSLLISWDAPAVTYGYYRITYGETGGNSPVQEFTVPGSKSTATISGLKPGVDYTITVYAVEYTFKHSGYYHRPISINYRTEIDKPSQHHHHHH | 
 |  |  | > 2000 nM |  | 1784F03-m2 (designed binder) MGVSDVPRDLEVVAATPTSLLISWDAPAHAYGYYRITYGETGGNSPVQEFTVPGSKGTATISGLKPGVDYTITVYAVEYTFKHSGYYHRPISINYRTEIDKPSQHHHHHH | 
0.543 nM | 0.000352 s⁻¹ | 656000 M⁻¹ s⁻¹ |  |  | ATI001175 (designed binder) MGVSDVPRDLEVVAATPTSLLISWDPPSHAYGYYRITYGETGGNSPVQEFTVPIGKGTATISGLKPGVDYTITVYAVEYPWKGSGYYHRPISINYRTEIDKPSQHHHHHH | 
0.586 nM | 0.000333 s⁻¹ | 583000 M⁻¹ s⁻¹ |  |  | ATI001168 (designed binder) MGVSDVPRDLEVVAATPTSLLISWEPPSHAYGYYRITYGETGGNSPVQEFTVPIGKGTATISGLKPGVDYTITVYAVEYPWKGSGYYHRPISINYRTEIDKPSQHHHHHH | 
 |  |  | > 2000 nM |  | 1784F03-m1 (designed binder) MGVSDVPRDLEVVAATPTSLLISWDAPIHAYGYYRITYGETGGNSPVQEFTVPGSEGTATISGLKPGVDYTITVYAVEYTFKHSGYYHRPISINYRTEIDKPSQHHHHHH | 
1.78 nM | 0.000555 s⁻¹ | 355000 M⁻¹ s⁻¹ |  |  | 2971E02 (designed binder, Anti-PCSK9 Adnectin, His6-tagged) MGVSDVPRDLEVVAATPTSLLISWDAPSDDYGYYRITYGETGGNSPVQEFTVPIGKGTATISGLKPGVDYTITVYAVEFPWPHAGYYHRPISINYRTEIDKPSQHHHHHH | 
2.79 nM | 0.00105 s⁻¹ | 399000 M⁻¹ s⁻¹ |  |  | 2971A09 (designed binder, Anti-PCSK9 Adnectin, His6-tagged) MGVSDVPRDLEVVAATPTSLLISWDAPADDYGYYRITYGETGGNSPVQEFTVPIGKGTATISGLKPGVDYTITVYAVEFPWPHAGYYHRPISINYRTEIDKPSQHHHHHH | 
 |  |  | 12 nM | 7.4 nM | 2011H05(V23E) (designed binder) MGVSDVPRDLEVVAATPTSLLISWEPSSHAYGYYRITYGETGGNSPVQEFTVPVGVGTATISGLKPGVDYTITVYAVEYAFEGAGYYHRPISINYRTEIDKPSQHHHHHH | 
 |  |  | 18 nM | 5.5 nM | 2011H05(V23D) (designed binder) MGVSDVPRDLEVVAATPTSLLISWDPSSHAYGYYRITYGETGGNSPVQEFTVPVGVGTATISGLKPGVDYTITVYAVEYAFEGAGYYHRPISINYRTEIDKPSQHHHHHH | 
 |  |  |  | 2.9 nM | 2382B11 (designed binder) MGVSDVPRDLEVVAATPTSLLISWDAPAAAYGYYRITYGETGGNSPVQEFTVPVSKGTATISGLKPGVDYTITVYAVEYDFAGSGYYHRPISINYRTEIDKPSQHHHHHH | LDLR Depletion (% inhibition at 75 nM) [2]: 88.8%
 |  |  |  | 6.2 nM | 2382E09 (designed binder) MGVSDVPRDLEVVAATPTSLLISWDAPAEAYGYYRITYGETGGNSPVQEFTVPVSKGTATISGLKPGVDYTITVYAVEYDFPGSGYYHRPISINYRTEIDKPSQHHHHHH | LDLR Depletion (% inhibition at 75 nM) [2]: 97.2%
 |  |  |  | 3.7 nM | 2382C11 (designed binder) MGVSDVPRDLEVVAATPTSLLISWDAPAGGYGYYRITYGETGGNSPVQEFTVPVSKGTATISGLKPGVDYTITVYAVEYDFAGSGYYHRPISINYRTEIDKPSQHHHHHH | LDLR Depletion (% inhibition at 75 nM) [2]: 82.9%
 |  |  |  | 2.9 nM | 2382B08 (designed binder) MGVSDVPRDLEVVAATPTSLLISWDAPADAYGYYRITYGETGGNSPVQEFTVPSSKGTATISGLKPGVDYTITVYAVEFAFPGAGYYHRPISINYRTEIDKPSQHHHHHH | LDLR Depletion (% inhibition at 75 nM) [2]: 107%
 |  |  |  | 1.7 nM | 2011B11 (designed binder) MGVSDVPRDLEVVAATPTSLLISWAPPSDAYGYYRITYGETGGNSPVQEFTVPIGKGTATISGLKPGVDYTITVYAVEYPYSHAGYYHRPISINYRTEIDKPSQHHHHHH | LDLR Depletion (% inhibition at 75 nM) [2]: 144%
